Measured values from article doi:10.1101/2020.01.16.909523 (bioRxiv, 2020).

Biological target: PE5mt-PPE4mt heterodimer (His6 tag cleaved) (Mycobacterium tuberculosis, UniProt L7N695 1-102; P9WI43 1-180)
Assay: SEC-MALS

Sequence of PE5mt-PPE4mt heterodimer (His6 tag cleaved) (L7N695 whole entry, chain 1 of 2): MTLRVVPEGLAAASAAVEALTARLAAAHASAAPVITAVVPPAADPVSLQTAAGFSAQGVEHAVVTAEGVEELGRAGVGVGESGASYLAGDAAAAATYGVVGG
Sequence of PE5mt-PPE4mt heterodimer (His6 tag cleaved) (P9WI43 1-180, chain 2 of 2): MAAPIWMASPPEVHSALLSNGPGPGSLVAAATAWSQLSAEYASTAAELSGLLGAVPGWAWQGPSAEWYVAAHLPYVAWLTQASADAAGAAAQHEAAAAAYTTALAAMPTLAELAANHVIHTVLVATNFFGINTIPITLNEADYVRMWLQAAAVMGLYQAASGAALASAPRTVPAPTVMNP

B1: EspG3mm (natural protein)
chain: MESMPNAVELTVENAWFIAEMVGAGTFPWVLAITTPYSDEAQRSAFFARQRDELTQLGLLSSDGVVNPAVAEWIKVVCFPERWLDLRYVGPGTGNGGEDLLRGIVAQSAGIMGKAGKAHPSFNTVVALRNAQLVTFTAMDIDDPRALVPVLGVGLSARPPARFEEFSMPMRVGARADERLRSGESLDEVLDYLGIPVSARPVVQAVFSGPRSYVEIVAGCNRDGEHTTTDVGLSIVDTTAGRVLVSPSRAFDGEWVSTFSAGTPFATAVAIDQLIANLPDGQWFPGQRLSRDFSSQPS
stoichiometry N: 1
